B1: TPR t1 (parent)
chain: GACCAAUCUGCCCUCAGAGCUCGAGAACAUCUUCGGAUGCAGAGGAGGCAGGCUUCGGUGGCGCGAUAGCGCCAACGUCCUCAACCUCCAAUGCAUCCCACCACAUGAUGAUGCCUGAAGAGCCUUGGUUUUUUG

Variants of: B1
Test: polymerase ribozyme fitness, log enrichment relative to wild type (log ratio); higher = more active; in vitro selection for triplet polymerase activity
Outline: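 Mutant libraries for each subunit of a heterodimeric triplet polymerase ribozyme were made by PCR and then transcribed. Each library underwent one round of in vitro selection in triplicate: annealing with a biotinylated primer, the partner subunit and triplets, frozen incubation at −7 °C, gel excision of extended constructs, streptavidin-bead capture and RT-PCR. Input and output libraries were Illumina-sequenced, and only genotypes with ≥10 input reads and ≥1 read per output were kept. Fitness is the logarithm, base 2, of genotype enrichment over wild-type enrichment, computed from inverse-variance-weighted replicate averages.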

Compared with C98U G120C, G107A G113C is lower in “polymerase ribozyme fitness (log ratio)” value: -0.208 for the first, -5.82 for the second.

Going from C94U A100G G120U to A111C G117C, the “polymerase ribozyme fitness (log ratio)” value falls from -3.95 to -4.16.

Compared with C102U G128C U129A, A95C U116G is higher in “polymerase ribozyme fitness (log ratio)” value: -4.82 for the first, -2.17 for the second.

Compared with A111G G117C, C94U G117U is higher in “polymerase ribozyme fitness (log ratio)” value: -4.52 for the first, 0.0636 for the second.

Going from G110A A121U to C101G U112A U116A U126A G127U, the “polymerase ribozyme fitness (log ratio)” value falls from 0.16 to -2.86.

First: A100U U106C
Second: C94G G110A
The “polymerase ribozyme fitness (log ratio)” value of the first is higher: -0.792 for the first, -2.23 for the second.

Going from C101G G110U to G110A A119C, the “polymerase ribozyme fitness (log ratio)” value rises from -4.98 to -2.25.

C102A U112G U132A and A103U C124G U131C are within 0.2 log units of each other in “polymerase ribozyme fitness (log ratio)” value: -2.53 for the first, -2.6 for the second.

Compared with C104U U130G, A95C G110A is lower in “polymerase ribozyme fitness (log ratio)” value: -0.0774 for the first, -2.49 for the second.

Compared with A100C U109A, G113C C124U is higher in “polymerase ribozyme fitness (log ratio)” value: -6.83 for the first, -2.58 for the second.

Compared with C98U U125A, U96A C124U is higher in “polymerase ribozyme fitness (log ratio)” value: -1.46 for the first, 1.03 for the second.

Going from C97G C123A to U109A U130A, the “polymerase ribozyme fitness (log ratio)” value falls from -4.41 to -5.09.

First: C94U A121G
Second: A111C G122C
The “polymerase ribozyme fitness (log ratio)” value of the first is higher: 1.59 for the first, -1.39 for the second.

C94G A100U G120A and C101A U112G C115A are within 0.2 log units of each other in “polymerase ribozyme fitness (log ratio)” value: -0.669 for the first, -0.657 for the second.

First: C104A C123U G128U U130A
Second: G110U U125A
The “polymerase ribozyme fitness (log ratio)” value of the first is lower: -1.35 for the first, -0.916 for the second.

Going from U106C C123G U133G to A111C A119U U131C, the “polymerase ribozyme fitness (log ratio)” value rises from -1.72 to 0.0159.

First: A95U G127A
Second: C114G G120A G135A
The “polymerase ribozyme fitness (log ratio)” value of the first is higher: -2.95 for the first, -4.92 for the second.

Going from C114G G128U U129A to A95G C97U A105U G122U, the “polymerase ribozyme fitness (log ratio)” value rises from -5.24 to -4.71.

C99U C123A and G113A U126G are within 0.2 log units of each other in “polymerase ribozyme fitness (log ratio)” value: -3.32 for the first, -3.39 for the second.

G113A C123G C124A and C102A C114U are within 0.2 log units of each other in “polymerase ribozyme fitness (log ratio)” value: -3.66 for the first, -3.69 for the second.

Going from G110U U112C to G113C G122A G135U, the “polymerase ribozyme fitness (log ratio)” value falls from -2.02 to -4.5.

Going from C94A G117C to C98U A119U, the “polymerase ribozyme fitness (log ratio)” value rises from -4.31 to -1.28.

Compared with C98G U116A C124G, C97A C102U is lower in “polymerase ribozyme fitness (log ratio)” value: -4.52 for the first, -4.94 for the second.

Compared with C97U G120U C124A, U109G C115A is lower in “polymerase ribozyme fitness (log ratio)” value: 0.793 for the first, -7.19 for the second.

Going from A111C G113U to G113A U125C, the “polymerase ribozyme fitness (log ratio)” value rises from -3.68 to -1.17.

Going from C104U G117A to A100C U133G, the “polymerase ribozyme fitness (log ratio)” value falls from -0.723 to -1.12.

Going from A100C U112C A118G to G107U C114A, the “polymerase ribozyme fitness (log ratio)” value falls from 0.0171 to -7.09.

First: G110U G135U
Second: A95U G117C
The “polymerase ribozyme fitness (log ratio)” value of the first is higher: -3.12 for the first, -4.23 for the second.

First: U106C G107U
Second: U96A A111G
The “polymerase ribozyme fitness (log ratio)” value of the first is lower: -4.63 for the first, -1.84 for the second.

Compared with G113U U129G, U112A G120C is higher in “polymerase ribozyme fitness (log ratio)” value: -5.28 for the first, -0.182 for the second.

Compared with C101U C123A, A100U U133A is lower in “polymerase ribozyme fitness (log ratio)” value: 0.0488 for the first, -0.657 for the second.

Going from A100U U133G to U109G G113A G127C, the “polymerase ribozyme fitness (log ratio)” value falls from -0.612 to -6.26.

Going from A105G U112C to C104U G117U U132A, the “polymerase ribozyme fitness (log ratio)” value falls from -0.683 to -1.97.

Going from G110A G113U to U96G A108G G117A, the “polymerase ribozyme fitness (log ratio)” value rises from -5.23 to -4.91.

First: U112G G117U
Second: U112G G117A
The “polymerase ribozyme fitness (log ratio)” value of the first is higher: -1.25 for the first, -2.9 for the second.

First: C101G G122A
Second: A111G G122U U129C
The “polymerase ribozyme fitness (log ratio)” value of the first is higher: -2.93 for the first, -5.05 for the second.

Going from A100U C123G to U112C A118U, the “polymerase ribozyme fitness (log ratio)” value rises from -1.75 to 1.35.

Going from C102U U109A to U112G U116G, the “polymerase ribozyme fitness (log ratio)” value rises from -6.07 to -2.14.

First: U96C G110C
Second: U96A U133G
The “polymerase ribozyme fitness (log ratio)” value of the first is lower: -4 for the first, -0.674 for the second.

Compared with G110C G122U, C94U U125G is higher in “polymerase ribozyme fitness (log ratio)” value: -4.38 for the first, -1.32 for the second.

Going from C94U U125A to U106A G117C, the “polymerase ribozyme fitness (log ratio)” value falls from -0.818 to -1.94.

Compared with U112G U116A G117U A121G, C101G U106A G122A is lower in “polymerase ribozyme fitness (log ratio)” value: 0.651 for the first, -0.277 for the second.

Compared with G110A U132A, U112G C123A is lower in “polymerase ribozyme fitness (log ratio)” value: -1.37 for the first, -2 for the second.

First: A105C C114U G120C
Second: C104G
The “polymerase ribozyme fitness (log ratio)” value of the first is higher: -2.29 for the first, -6.88 for the second.

First: C104A
Second: C104U
The “polymerase ribozyme fitness (log ratio)” value of the first is lower: -1.45 for the first, 0.111 for the second.

First: C99U A119G
Second: C94U U131A
The “polymerase ribozyme fitness (log ratio)” value of the first is lower: -1.65 for the first, -0.362 for the second.

Going from U112C A121G to G113A U130A, the “polymerase ribozyme fitness (log ratio)” value falls from 2.63 to -2.33.

Compared with G113A U130C, U96C C102U G113C is lower in “polymerase ribozyme fitness (log ratio)” value: -1.16 for the first, -4.89 for the second.

Compared with A100C G120A, C102U G120C is lower in “polymerase ribozyme fitness (log ratio)” value: 1.47 for the first, -1.05 for the second.

Going from U112G G127A to C98A G120U, the “polymerase ribozyme fitness (log ratio)” value falls from -1.12 to -4.6.

Going from U106A C124A G128A to G113C G120A, the “polymerase ribozyme fitness (log ratio)” value falls from 0.53 to -2.39.

U96G G120U and U96G G120A are within 0.2 log units of each other in “polymerase ribozyme fitness (log ratio)” value: -0.269 for the first, -0.241 for the second.

Going from C94A U109A to C104U U106A U109A C114U C123U, the “polymerase ribozyme fitness (log ratio)” value falls from -5.96 to -6.98.

Going from C97U G122A to C104A G110U, the “polymerase ribozyme fitness (log ratio)” value falls from -1.08 to -3.77.

Going from C102A U109A to A103G U130A, the “polymerase ribozyme fitness (log ratio)” value rises from -5.92 to -5.53.

Going from U96A C123U to U112G G135U, the “polymerase ribozyme fitness (log ratio)” value falls from -0.01 to -1.01.

Compared with C102U G113A, G113U G120A U132A is lower in “polymerase ribozyme fitness (log ratio)” value: -2.86 for the first, -3.83 for the second.

First: A111G G113C
Second: A105U G110U
The “polymerase ribozyme fitness (log ratio)” value of the first is higher: -2.06 for the first, -6.12 for the second.

U96A U131C and C94U G110A are within 0.2 log units of each other in “polymerase ribozyme fitness (log ratio)” value: -1.19 for the first, -1.18 for the second.

Compared with A100G G120U, C114A U133A G135C is higher in “polymerase ribozyme fitness (log ratio)” value: -3.45 for the first, -1.08 for the second.

Going from U112A U126A to A95U U106G G120U, the “polymerase ribozyme fitness (log ratio)” value falls from 1.04 to -2.83.

Compared with U96A A121G, U96A A121C is higher in “polymerase ribozyme fitness (log ratio)” value: 0.527 for the first, 1.1 for the second.

Going from A108U U129A to A111C A119U, the “polymerase ribozyme fitness (log ratio)” value rises from -6.43 to -2.28.

Going from C101A to C101G, the “polymerase ribozyme fitness (log ratio)” value falls from -1.14 to -1.66.

Going from C101U to C94A G110C G120C, the “polymerase ribozyme fitness (log ratio)” value falls from -0.0389 to -6.12.

Compared with C98A C115U C123U, C104A G117A is higher in “polymerase ribozyme fitness (log ratio)” value: -7.67 for the first, -2.41 for the second.

First: C101G G117A
Second: C99U U134C
The “polymerase ribozyme fitness (log ratio)” value of the first is higher: -3.52 for the first, -4.03 for the second.

Going from C94U G113C to A103U U130A, the “polymerase ribozyme fitness (log ratio)” value falls from -2.26 to -4.14.

First: U106A U109A
Second: G110A G122U
The “polymerase ribozyme fitness (log ratio)” value of the first is lower: -3.73 for the first, -1.41 for the second.

Compared with A95G G110U U130G U132A, U96G G113C is lower in “polymerase ribozyme fitness (log ratio)” value: -1.43 for the first, -2.59 for the second.

Going from C101G C123U to G113U U133A, the “polymerase ribozyme fitness (log ratio)” value falls from -0.756 to -3.57.

First: C101G C102G G110C
Second: A111C
The “polymerase ribozyme fitness (log ratio)” value of the first is lower: -4.36 for the first, 0.388 for the second.

Going from A111G to A111U, the “polymerase ribozyme fitness (log ratio)” value falls from 0.509 to -2.62.

Going from A111G G120A to G110A C115A, the “polymerase ribozyme fitness (log ratio)” value falls from -0.416 to -1.87.

Going from C98U A118C to C98G C124U, the “polymerase ribozyme fitness (log ratio)” value falls from -4.03 to -5.51.

Going from C97G U112G to C101A G110A, the “polymerase ribozyme fitness (log ratio)” value rises from -5.5 to -2.55.

C97A U131A and C99U C115A are within 0.2 log units of each other in “polymerase ribozyme fitness (log ratio)” value: -3.97 for the first, -3.86 for the second.

First: C98U G110U
Second: U112C C124G G128A
The “polymerase ribozyme fitness (log ratio)” value of the first is lower: -2.66 for the first, -0.155 for the second.

First: A100U U116C
Second: G107A U112C
The “polymerase ribozyme fitness (log ratio)” value of the first is higher: -2.35 for the first, -3.85 for the second.

Going from C94A G128A to U112A G113A, the “polymerase ribozyme fitness (log ratio)” value rises from -2.41 to -0.782.

Going from C102U U106C G113A A121C U131G to G113U G120A, the “polymerase ribozyme fitness (log ratio)” value rises from -3.34 to -2.2.

Going from A105U A111U to A111G G120A G122A, the “polymerase ribozyme fitness (log ratio)” value rises from -5.69 to -2.07.

Going from A108U C124A to U106A U112A, the “polymerase ribozyme fitness (log ratio)” value rises from -4.18 to 0.701.

With U96G G110U G120U U132C the “polymerase ribozyme fitness (log ratio)” value was -4.08.

Reference: the RNAGym collection of RNA variant scans (doi:10.1073/pnas.2313332121)
